The target of one experiment is full-length (FL) NS5 protein (wt PBM) of West Nile virus (West Nile virus). The experiment is described as follows: split reporter (BiFC, NanoBiT); N2H split-NanoLuc in HEK-293T cells; full-length NS5 with 257 single PDZ domains; read-out NLR with NS5 minus NLR with NS5ΔPBM, three experiments; hits > 0.25.
Microtubule-associated serine/threonine-protein kinase 1, PDZ domain (N2H construct), sequence (Q9Y2H9 967-1055): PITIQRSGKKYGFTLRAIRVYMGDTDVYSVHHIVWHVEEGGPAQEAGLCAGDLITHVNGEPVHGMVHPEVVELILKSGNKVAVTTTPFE
Microtubule-associated serine/threonine-protein kinase 2, PDZ domain (N2H construct), sequence (Q6P0Q8 1104-1192): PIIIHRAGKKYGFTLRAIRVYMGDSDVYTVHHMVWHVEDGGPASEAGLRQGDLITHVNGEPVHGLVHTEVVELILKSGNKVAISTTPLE
Connector enhancer of kinase suppressor of ras 3, full-length protein (ORF, N2H construct), sequence (Q6P9H4 whole entry): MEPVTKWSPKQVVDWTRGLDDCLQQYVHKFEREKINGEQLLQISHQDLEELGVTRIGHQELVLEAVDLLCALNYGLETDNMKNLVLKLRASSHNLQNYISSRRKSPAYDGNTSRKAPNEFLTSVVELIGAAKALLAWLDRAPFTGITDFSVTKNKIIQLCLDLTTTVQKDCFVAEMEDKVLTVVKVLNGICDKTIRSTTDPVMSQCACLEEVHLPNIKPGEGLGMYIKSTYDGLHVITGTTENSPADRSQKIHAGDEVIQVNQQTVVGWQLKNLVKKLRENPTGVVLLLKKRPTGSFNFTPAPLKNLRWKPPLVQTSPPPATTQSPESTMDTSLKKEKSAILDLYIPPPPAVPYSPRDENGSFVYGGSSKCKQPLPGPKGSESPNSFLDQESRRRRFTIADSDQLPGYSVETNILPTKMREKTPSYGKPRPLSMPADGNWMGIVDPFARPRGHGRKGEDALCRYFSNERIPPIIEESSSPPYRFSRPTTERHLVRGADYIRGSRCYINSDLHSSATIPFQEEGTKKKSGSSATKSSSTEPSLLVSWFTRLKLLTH
Serine protease HTRA1, PDZ domain (N2H construct), sequence (Q92743 365-467): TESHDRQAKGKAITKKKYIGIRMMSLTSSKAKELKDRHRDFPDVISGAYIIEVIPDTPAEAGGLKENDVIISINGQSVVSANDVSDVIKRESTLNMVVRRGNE
Connector enhancer of kinase suppressor of ras 3, PDZ domain (N2H construct), sequence (Q6P9H4 211-293): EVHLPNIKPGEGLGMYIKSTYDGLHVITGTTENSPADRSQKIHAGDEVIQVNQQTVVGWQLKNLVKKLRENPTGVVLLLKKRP
Partitioning defective 3 homolog, PDZ domain 1 (N2H construct), sequence (Q8TEW0 271-359): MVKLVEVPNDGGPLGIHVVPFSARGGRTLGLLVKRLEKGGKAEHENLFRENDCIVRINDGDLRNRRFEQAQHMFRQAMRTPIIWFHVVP
Protein scribble homolog, PDZ domain 1 (N2H construct), sequence (Q14160 728-815): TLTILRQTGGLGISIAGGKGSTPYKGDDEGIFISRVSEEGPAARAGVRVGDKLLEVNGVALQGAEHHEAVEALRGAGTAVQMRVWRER
Protein scribble homolog, PDZ domain 4 (N2H construct), sequence (Q14160 1100-1194): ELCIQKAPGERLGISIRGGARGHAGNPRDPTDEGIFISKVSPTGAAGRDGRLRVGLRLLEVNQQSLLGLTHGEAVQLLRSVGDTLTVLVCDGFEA
FERM and PDZ domain-containing protein 4, PDZ domain (N2H construct), sequence (Q14CM0 78-155): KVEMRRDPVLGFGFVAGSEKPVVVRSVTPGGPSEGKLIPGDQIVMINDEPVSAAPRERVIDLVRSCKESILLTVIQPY
“Connector enhancer of kinase suppressor of ras 3, PDZ domain (N2H construct) (from UniProt Q6P9H4 211-293) (domain or fragment)”: the NLR(NS5) - NLR(NS5ΔPBM) came to 6.27.

In the case of “FERM and PDZ domain-containing protein 4, PDZ domain (N2H construct) (from UniProt Q14CM0 78-155) (domain or fragment)”, the NLR(NS5) - NLR(NS5ΔPBM) was under 0.25.

Regarding “Golgi reassembly-stacking protein 2, PDZ domain (N2H construct) (domain or fragment)”, the NLR(NS5) - NLR(NS5ΔPBM) was 1.32.

Take “Microtubule-associated serine/threonine-protein kinase 1, PDZ domain (N2H construct) (from UniProt Q9Y2H9 967-1055) (domain or fragment)”: the NLR(NS5) - NLR(NS5ΔPBM) was under 0.25.

As for “Microtubule-associated serine/threonine-protein kinase 2, PDZ domain (N2H construct) (from UniProt Q6P0Q8 1104-1192) (domain or fragment)”, the NLR(NS5) - NLR(NS5ΔPBM) turned out to be 0.87.

As to “Partitioning defective 3 homolog, PDZ domain 1 (N2H construct) (from UniProt Q8TEW0 271-359) (domain or fragment)”, the NLR(NS5) - NLR(NS5ΔPBM) stood at 1.24.

For the substance “Protein scribble homolog, PDZ domain 1 (N2H construct) (from UniProt Q14160 728-815) (domain or fragment)”, the NLR(NS5) - NLR(NS5ΔPBM) stood at 0.76.

As to “Protein scribble homolog, PDZ domain 4 (N2H construct) (from UniProt Q14160 1100-1194) (domain or fragment)”, the NLR(NS5) - NLR(NS5ΔPBM) is 0.56.

Consider “Serine protease HTRA1, PDZ domain (N2H construct) (from UniProt Q92743 365-467) (domain or fragment)”, for which the NLR(NS5) - NLR(NS5ΔPBM) is under 0.25.

For a further experiment the target is unchanged. Briefly: split reporter (BiFC, NanoBiT); N2H split-NanoLuc in HEK-293T cells; full-length NS5 with 91 full-length human PDZ proteins (ORFs); read-out NLR; hits NLR > 1.35.
On to “Rho GTPase-activating protein 21, full-length protein (ORF, N2H construct) (from UniProt Q5T5U3 1-1958) (natural protein)”, for which the NLR came to 4.41.

For another experiment, the target named is biotinylated WNV NS5 PBM peptide (West Nile virus). Briefly: holdup assay (automated high-throughput chromatography); biotinylated NS5 PBM peptide as bait against 259 human PDZ domains expressed in E. coli; read-out binding intensity (BI), mean of replicates; BI threshold 0.2 for a significant interaction.
With “Golgi reassembly-stacking protein 2, PDZ domain (holdup construct) (domain or fragment)”, the BI (holdup binding intensity) was under 0.15.

In the next experiment the target is full-length (FL) NS5 protein (wt PBM) of West Nile virus (West Nile virus). Briefly: split reporter (BiFC, NanoBiT); N2H split-NanoLuc in HEK-293T cells; full-length NS5 with 91 full-length human PDZ proteins (ORFs); read-out NLR; hits NLR > 1.35. This is another data set of the same source.
Regarding “Connector enhancer of kinase suppressor of ras 3, full-length protein (ORF, N2H construct) (from UniProt Q6P9H4 1-555) (natural protein)”, the NLR was determined as 1.91.

Take “Rho GTPase-activating protein 21, full-length protein (ORF, N2H construct) (from UniProt Q5T5U3 1-1958) (natural protein)”: the NLR turned out to be 4.4.

For the substance “SH3 and multiple ankyrin repeat domains protein 2, full-length protein (ORF, N2H construct) (from UniProt Q9UPX8 1-1849) (natural protein)”, the NLR is 4.38.
